Measured values: publication PMC11825094, “Tonic ubiquitination of the central body weight regulator melanocortin receptor 4 (MC4R) promotes its constitutive exit from cilia” (PLOS Biology, 2025)

Target: melanocortin receptor 4 (MC4R)-3xmNeonGreen, human (human, UniProt P32245 1-332, a fraction carries K63-linked polyubiquitin chains (smear above the main band))
Experiment: cell-based or functional assay

melanocortin receptor 4 (MC4R)-3xmNeonGreen, human, sequence (P32245 whole entry): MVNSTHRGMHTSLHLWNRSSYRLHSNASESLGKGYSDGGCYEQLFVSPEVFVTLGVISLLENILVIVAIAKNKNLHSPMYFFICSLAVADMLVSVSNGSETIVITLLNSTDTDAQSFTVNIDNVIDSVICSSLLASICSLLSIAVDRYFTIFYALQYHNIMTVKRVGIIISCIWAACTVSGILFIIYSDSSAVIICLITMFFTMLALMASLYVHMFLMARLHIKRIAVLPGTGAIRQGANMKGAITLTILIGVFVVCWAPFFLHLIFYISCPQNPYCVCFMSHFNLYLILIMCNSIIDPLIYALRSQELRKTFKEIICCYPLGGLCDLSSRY

ciliary fluorescence of MRAP2^3FLAG in IMCD3-[MRAP2^3FLAG/MC4R^3NG] cells treated with 5 nM HS014, time course, against vehicle: 11 fold
ciliary fluorescence of MRAP2^3FLAG in IMCD3-[MRAP2^3FLAG/MC4R^3NG] cells treated with 50 nM AgRP, time course, against vehicle: 25 fold
B1: melanocortin receptor accessory protein 2 (MRAP2)-3xFLAG, murine (natural protein, mouse, UniProt D3Z1Q2 3-207, looked up)
chain: MSAQRLASNRTSPQSPSNSDYTWEYEYYEIGPVSFEGLKAHKYSIVIGFWVGLAVFVIFMFFVLTLLTKTGAPHQDNAESSERRFRMNSFVSDFGKPLESDKVFSRQGNEESRSLFHCYINEVEHLDRVKVCHQTTAIDSDVHLQEASRSSGRPEEELARFMKFDIPNFVNTEQSSFGEDDLLISEAPVLLENKPVSQTSRIDLD
